# In the supplement of paper PMC9233669:
# Variants at the floor of the assay were thinned out.
# Key:
# biotinyl-Leu-oxazolone = experiment: self-aminoacylation, catalytic enhancement (BLO) (fold over background); higher = more active; k-Seq, kA / k0A0; sequences stand for … in GGGAAUGGAUCCACAUCUACGAAUUC…UUCACUGCAGACUUGACGAAGCUG
# How it was run: (§1)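 Mutagenized RNA pools (0.43 μM; 21-nt variable region) were treated with 2–1250 μM of each biotinyl-aminoacyl-oxazolone. Conditions were 50 μL HEPES/NaCl/KCl/MgCl2/CaCl2 buffer, 5% acetonitrile, pH 6.9–7.0, room temperature, 90 minutes. Catalytic enhancement, the median kA relative to the uncatalyzed rate, was derived from streptavidin capture, qPCR and Illumina sequencing.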
# biotinyl-Ile-oxazolone = experiment: self-aminoacylation, catalytic enhancement (BIO) (fold over background); higher = more active; k-Seq, kA / k0A0; sequences stand for … in GGGAAUGGAUCCACAUCUACGAAUUC…UUCACUGCAGACUUGACGAAGCUG
# How it was run: as §1
# biotinyl-Phe-oxazolone = experiment: self-aminoacylation, catalytic enhancement (BFO) (fold over background); higher = more active; k-Seq, kA / k0A0; sequences stand for … in GGGAAUGGAUCCACAUCUACGAAUUC…UUCACUGCAGACUUGACGAAGCUG
# How it was run: as §1
# biotinyl-Met-oxazolone = experiment: self-aminoacylation, catalytic enhancement (BMO) (fold over background); higher = more active; k-Seq, kA / k0A0; sequences stand for … in GGGAAUGGAUCCACAUCUACGAAUUC…UUCACUGCAGACUUGACGAAGCUG
# How it was run: as §1
# biotinyl-Trp-oxazolone = experiment: self-aminoacylation, catalytic enhancement (BWO) (fold over background); higher = more active; k-Seq, kA / k0A0; sequences stand for … in GGGAAUGGAUCCACAUCUACGAAUUC…UUCACUGCAGACUUGACGAAGCUG
# How it was run: as §1
# biotinyl-Val-oxazolone = experiment: self-aminoacylation, catalytic enhancement (BVO) (fold over background); higher = more active; k-Seq, kA / k0A0; sequences stand for … in GGGAAUGGAUCCACAUCUACGAAUUC…UUCACUGCAGACUUGACGAAGCUG
# How it was run: as §1
Sequence,self-aminoacylation (biotinyl-Leu-oxazolone),self-aminoacylation (biotinyl-Ile-oxazolone),self-aminoacylation (biotinyl-Phe-oxazolone),self-aminoacylation (biotinyl-Met-oxazolone),self-aminoacylation (biotinyl-Trp-oxazolone),self-aminoacylation (biotinyl-Val-oxazolone)
CCACACUGCAAGCAAUUGGUC [Fam1B.1 aminoacylation ribozyme variant],0.961,1.14,0.969,0.87,0.59,0.956
AUUAAUCUAGGUCAUCGGGUG [Fam2.2 aminoacylation ribozyme variant],4.65,2.73,15,3.43,4.05,2.72
CCACACUUCAAGCAUUCUGUC [Fam1B.1 aminoacylation ribozyme variant],0.284,0.414,0.618,0.32,0.372,0.497
AAGUGUGCUAAUAGCCGCAAG [Fam3.1 aminoacylation ribozyme variant],1.2,1.81,3.94,1.49,2.61,1.48
CCACACUUCAAGGCAUCGGUC [Fam1B.1 aminoacylation ribozyme variant],1.18,1.03,1.18,1.02,1.16,1.32
UUUACCCUGGACAUCGAGUGA [Fam2.1 aminoacylation ribozyme variant],4.69,2.68,14.9,4.86,5.78,3.1
GCACAGUUCAAGCAAUCGGUC [Fam1B.1 aminoacylation ribozyme variant],2.04,2.44,4.42,1.98,4.48,2.07
CCACACUUCAAGCGAUCGGUG [Fam1B.1 aminoacylation ribozyme variant],8.84,4.19,41.8,6.68,6.74,4.66
CUUCACCUAGGUCAUCGAGUG [Fam2.2 aminoacylation ribozyme variant],7.37,4.29,9.18,5.78,4.55,4.22
AUAACCCUGGUCAUCGCGUGA [Fam2.1 aminoacylation ribozyme variant],18.2,6.85,103,16,18.7,7.96
AUUCCCCUGGUCAGCGAGUGA [Fam2.1 aminoacylation ribozyme variant],7.02,3.66,39.5,5.69,8.52,4.24
AUUACCCAGGUCAUCGAGUGA [Fam2.1 aminoacylation ribozyme variant],6.08,3.21,22.8,5.79,6.89,3.55
AAGUUUGCUAAUACUCGUAAG [Fam3.1 aminoacylation ribozyme variant],0.559,0.57,0.706,0.547,0.557,0.636
AUUCACUUAGGUCACCGGGUG [Fam2.2 aminoacylation ribozyme variant],5.15,3.47,28.2,4.86,5.19,3.33
AUUACCCUGGUCUUCGAGUGU [Fam2.1 aminoacylation ribozyme variant],2.03,1.52,1.76,1.96,2.23,1.57
UUUCACCUAGGUCAUCCGGUG [Fam2.2 aminoacylation ribozyme variant],5.87,4.39,35.9,4.88,6.5,4.32
CUACUUCAAACAGUCGGCCUG [Fam1A.1 aminoacylation ribozyme variant],1.78,1.63,2.1,1.77,1.39,1.71
CUACUUCAAAGAAUCGGUCCG [Fam1A.1 aminoacylation ribozyme variant],0.866,0.718,0.351,0.638,0.384,0.607
CUACUUCACACAUUCGGUCUG [Fam1A.1 aminoacylation ribozyme variant],1.36,1.16,1.72,1.13,1.69,1.1
AUACACCUAGGUCAUCCGGUG [Fam2.2 aminoacylation ribozyme variant],6.81,3.5,30.6,3.91,5.38,3.14
GUUACCCAGGUCAUCGAGUGA [Fam2.1 aminoacylation ribozyme variant],6.2,4.24,22.2,6.63,7.86,3.78
AAGUUUGCUGAUAGUCGCAAG [Fam3.1 aminoacylation ribozyme variant],0.866,0.979,1.68,0.906,1.02,0.952
AUUACCCUGGUCAUAGAGUAA [Fam2.1 aminoacylation ribozyme variant],1.37,1.44,0.983,1.17,0.757,1.29
AAGUUAGCUAAUAUUCGCAAG [Fam3.1 aminoacylation ribozyme variant],1.33,1.78,2.26,1.43,1.59,1.39
AAGCUUGCUAAUAGUCGCCAG [Fam3.1 aminoacylation ribozyme variant],2.63,2.3,14.9,2.39,3.3,2.33
GUUACCCUGGUCAUCGAGUGU [Fam2.1 aminoacylation ribozyme variant],114,31.5,825,111,102,37.1

Sequence,self-aminoacylation (biotinyl-Leu-oxazolone),self-aminoacylation (biotinyl-Ile-oxazolone),self-aminoacylation (biotinyl-Phe-oxazolone),self-aminoacylation (biotinyl-Met-oxazolone),self-aminoacylation (biotinyl-Trp-oxazolone),self-aminoacylation (biotinyl-Val-oxazolone)
AAGUUUGCUAAAAGUCGCAAG [Fam3.1 aminoacylation ribozyme variant],1.01,1.24,17.1,1.33,4.97,1.08
CCACACUUCACGCAAUCGGGC [Fam1B.1 aminoacylation ribozyme variant],2.39,2.42,20,2.18,2.1,3.33
CUACUUCAAAUAAUCGGUCUA [Fam1A.1 aminoacylation ribozyme variant],0.727,0.795,7.72,0.659,3.51,0.78
AUUCACCUACGUCAUCGGGUA [Fam2.2 aminoacylation ribozyme variant],1.96,1.58,0.967,1.94,2.18,1.61
CUAUUUCAAACACUCGGUCUG [Fam1A.1 aminoacylation ribozyme variant],0.875,0.995,1.36,0.95,0.925,0.921
CCAUACUUCAAGCAACCGGUC [Fam1B.1 aminoacylation ribozyme variant],0.894,1.06,1.06,0.74,0.794,1
AAGUUUGCUUAUAGUCGCACG [Fam3.1 aminoacylation ribozyme variant],0.932,0.815,1.27,0.961,0.924,0.855
CCUACCCUGGUCAUCGAGUGA [Fam2.1 aminoacylation ribozyme variant],7.58,3.88,49.8,6.64,9.17,4.14
GUUCACCUAGAUCAUCGGGUG [Fam2.2 aminoacylation ribozyme variant],2.92,2.6,6.53,2.87,3.29,2.75
AGUUUUGCUAAUAGUCGCAAG [Fam3.1 aminoacylation ribozyme variant],2.61,2.4,4.55,2.35,3.48,2.1
AAGUUUGCUAACAGACGCAAG [Fam3.1 aminoacylation ribozyme variant],0.38,0.512,1.06,0.478,0.444,0.733
AAGUUCGCUAAUAGUUGCAAG [Fam3.1 aminoacylation ribozyme variant],1.33,1.52,1.71,1.47,1.12,1.22
AUUAUCCUGCUCAUCGAGUGA [Fam2.1 aminoacylation ribozyme variant],2.77,1.76,2.88,2.69,3.08,1.8
ACGUUUGCUAAUAGUCGCAAU [Fam3.1 aminoacylation ribozyme variant],1.51,1.66,2.06,1.45,1.53,1.33
AAGUUUGCUAAUAGUAGCAGG [Fam3.1 aminoacylation ribozyme variant],1.08,1.08,1.71,1.16,0.837,0.985
AUGCACCUAGCUCAUCGGGUG [Fam2.2 aminoacylation ribozyme variant],2.11,1.62,3.64,1.57,2.72,2.4
CUCCUUCAAACAAUCGGUAUG [Fam1A.1 aminoacylation ribozyme variant],1.24,0.742,13.8,1.07,11.2,0.866
AUUCAGCUAGGUCAGCGGGUG [Fam2.2 aminoacylation ribozyme variant],4.01,2.71,21.8,3.79,4.28,2.53
AUUCACCUAGGGCCUCGGGUG [Fam2.2 aminoacylation ribozyme variant],3.89,2.37,20.3,3.51,3.99,2.66
AUUACCCGGGUCAUCGAGGGA [Fam2.1 aminoacylation ribozyme variant],1.61,1.46,3.47,1.32,0.834,1.32
AUUCCCCAAGGUCAUCGGGUG [Fam2.2 aminoacylation ribozyme variant],31.1,15.9,218,27,20.9,14.8
AUUGCCCUGGUCUUCGAGUGA [Fam2.1 aminoacylation ribozyme variant],6.8,3.44,47.1,6.57,8.03,3.96
AAGUUAGCUAAUAGUCCCAAG [Fam3.1 aminoacylation ribozyme variant],1,1.15,2.79,1.18,1.1,0.967
CUACUUCAAACAAUCAGUUUG [Fam1A.1 aminoacylation ribozyme variant],0.861,0.803,15.7,0.779,6.56,0.73
AUUAUCCAGGUCAUCGAGUGA [Fam2.1 aminoacylation ribozyme variant],6.32,3.13,30.3,6.52,7.93,3.41
